# Test results from patent publication US20210087291A1 (Hoffmann-La Roche, published 2021).
# Read-outs that look alike come from different tables or passages of the source.
# Assays:
# [1] = target: T1, human FolR2 ECD-AcTev-Fcknob-Avi tag + Fc hole, biotinylated monomeric Fc fusion (human, UniProt P0DOX5 223-449 = IgG part); test: SPR, IgG single injection
# T1 construct: also called huFolR2; FolR2-Fc
# [2] = target: T2, human FolR1 ECD-AcTev-Fcknob-Avi tag + Fc hole, biotinylated monomeric Fc fusion (human, UniProt P0DOX5 223-449 = IgG part); test: SPR, IgG single injection
# T2 construct: also called huFolR1; huFolR1-Fc
# [3] = target: T3, human FolR3 ECD-AcTev-Fcknob-Avi tag + Fc hole, biotinylated monomeric Fc fusion (human, UniProt P0DOX5 223-449 = IgG part); test: SPR, IgG single injection
# T3 construct: also called huFolR3; FolR3-Fc
# [4] = target: T4, cynomolgus FolR1 ECD-AcTev-Fcknob-Avi tag + Fc hole, biotinylated monomeric Fc fusion (cynomolgus, UniProt P0DOX5 223-449 = IgG part); test: SPR, IgG single injection
# T4 construct: also called cyFolR1; cyno FolR1-Fc
# [5] = target: T5, murine FolR1 ECD-AcTev-Fcknob-Avitag + Fc hole, biotinylated monomeric Fc fusion (murine, UniProt P0DOX5 223-449 = IgG part); test: SPR, apparent KD, bivalent binding, 2.3 uM folate in running buffer
# T5 construct: also called muFolR1; murine FolR1-Fc
# Description: (§1) Binding of FolR1 binders as IgG or in the T-cell bispecific format to different recombinant folate receptors (human FolR1, 2 and 3, murine FolR1 and cynomolgus FolR1; all as Fc fusions) was assessed by surface plasmon resonance (SPR).
# (§2) Recombinant biotinylated monomeric Fc fusions of human, cynomolgus and murine Folate Receptor 1 (FolR1-Fc) were directly coupled on a SA chip using the standard coupling instruction (Biacore, Freiburg/Germany). The immobilization level was about 300-400 RU. The anti-FolR1 IgGs or T cell bispecifics were passed at a concentration range from 2.1 to 500 nM with a flow of 30 μL/minutes through the flow cells over 180 seconds. The dissociation was monitored for 600 seconds. Bulk refractive index differences were corrected for by subtracting the response obtained on reference flow cell immobilized with recombinant biotinylated IL2 receptor Fc fusion. […] The binding curves resulting from the bivalent binding of the IgGs or T cell bispecifics were approximated to a 1:1 Langmuir binding and fitted with that model (which is not correct, but gives an idea of the avidity). The apparent avidity constants for the interactions were derived from the rate constants of the fitting using the Bia Evaluation software (GE Healthcare).
# human FolR1 on cells [6] = target: T6, human FolR1 on cells (human, UniProt P15328 25-234); test: flow cytometry on HeLa cells (human FolR1), fluorescently labeled anti-human secondary antibody
# T6 construct: also called FolR1 on HeLa, SKOV3, HT-29 tumor cells; HEK cells transfected with human FolR1
# Description: (§3) Binding of newly generated FolR1 binders to FolR1 expressed on HeLa cells were determined by flow cytometry. Bound antibodies were detected with a fluorescently labeled anti-human secondary antibody.
# (§4) The identified binders were converted into a human IgG1 format and binding to FolR1 high expressing HeLa cells was addressed.
# [7] = target: T7, human FolR2 on transiently transfected HEK cells (human, UniProt P14207 17-230); test: flow cytometry on HEK cells transiently transfected with human FolR2, anti-human secondary antibody; concentration not given
# human FolR1 on cells [8] = target: T6, human FolR1 on cells; test: flow cytometry on HEK cells transiently transfected with human FolR1, anti-human secondary antibody; concentration not given
# [9] = target: T5, murine FolR1 ECD-AcTev-Fcknob-Avitag + …; test: SPR, 500 nM IgG single injection
# human FolR1 on cells [10] = target: T6, human FolR1 on cells; test: flow cytometry on HeLa cells (human FolR1), fluorescently labeled anti-human secondary antibody; remark: listed apart in the source
# Description: as §3, §4
# [11] = target: T2, human FolR1 ECD-AcTev-Fcknob-Avi tag + …; test: SPR, apparent KD, bivalent binding (avidity)
# Description: as §1, §2
# [12] = target: T4, cynomolgus FolR1 ECD-AcTev-Fcknob-Avi …; test: SPR, apparent KD, bivalent binding (avidity)
# Description: as §1, §2
# [13] = target: T2, human FolR1 ECD-AcTev-Fcknob-Avi tag + …; test: SPR, monovalent, antibody captured by anti-Fab
# Description: as §1
# (§5) For affinity measurement, direct coupling of around 6000-7000 resonance units (RU) of the anti-human Fab specific antibody (Fab capture kit, GE Healthcare) was performed on a CM5 chip at pH5.0 using the standard amine coupling kit (GE Healthcare). Anti-FolR1 IgGs or T cell bispecifics were captured at 20 nM with a flow rate of 10 μl/min for 20 or 40 sec, the reference flow cell was left without capture. […] The dissociation phase was monitored for 240 sand triggered by switching from the sample solution to HBS-EP. The chip surface was regenerated after every cycle using a double injection of 60 sec 10 mM Glycine-HCl pH 2.1 or pH1.5. Bulk refractive index differences were corrected for by subtracting the response obtained on the reference flow cell 1. The affinity constants for the interactions were derived from the rate constants by fitting to a 1:1 Langmuir binding using the Bia Evaluation software (GE Healthcare).
# [14] = target: T4, cynomolgus FolR1 ECD-AcTev-Fcknob-Avi …; test: SPR, monovalent, antibody captured by anti-Fab
# Description: as §1, §5
# [15] = target: T2, human FolR1 ECD-AcTev-Fcknob-Avi tag + …; test: SPR, bivalent binding (avidity), antigen on SA chip
# Description: as §1, §2
# [16] = target: T4, cynomolgus FolR1 ECD-AcTev-Fcknob-Avi …; test: as above
# Description: as §1, §2
# [17] = target: T8, cynomolgus FolR1 on transiently transfected HEK cells (cynomolgus, UniProt P15328 25-234 (human entry)); test: flow cytometry on HEK cells transiently transfected with cyno FolR1, anti-human secondary antibody
# T8 construct: also called cyno FolR1; cyFoLR1
# Excerpt: Cross-reactivity of the FolR1 antibodies to cyno FolR1 was addressed on HEK cells transiently transfected with cyFolR1 by flow cytometry. The antibodies were detected with a fluorescently labeled anti-human secondary antibody.
# In parallel cross-reactivity of the FolR1 clones to cyno FolR1 was addressed by performing binding studies to HEK cells transiently transfected with cyno FolR1.
# human FolR1 on cells [18] = target: T6, human FolR1 on cells; test: flow cytometry on HeLa cells (human FolR1), fluorescently labeled anti-human secondary antibody; remark: listed apart in the source
# Description: as §3, §4
# [19] = target: T5, murine FolR1 ECD-AcTev-Fcknob-Avitag + …; test: SPR, apparent KD, bivalent binding (avidity)
# Description: as §1, §2
# [20] = target: T7, human FolR2 on transiently transfected …; test: flow cytometry on HEK cells transiently transfected with human FolR2, anti-human secondary antibody; concentration not given; remark: listed apart in the source
# [21] = target: T5, murine FolR1 ECD-AcTev-Fcknob-Avitag + …; test: SPR, bivalent binding (avidity), antigen on SA chip
# Description: as §1, §2
# T6 sequence (P15328 25-234 limits assumed): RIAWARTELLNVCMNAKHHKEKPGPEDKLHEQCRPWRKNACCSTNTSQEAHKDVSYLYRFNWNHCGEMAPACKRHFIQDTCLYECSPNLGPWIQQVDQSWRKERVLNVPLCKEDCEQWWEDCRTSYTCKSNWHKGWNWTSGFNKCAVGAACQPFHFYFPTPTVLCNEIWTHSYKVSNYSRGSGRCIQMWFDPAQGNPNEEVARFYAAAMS
# T7 sequence (P14207 17-230 limits assumed): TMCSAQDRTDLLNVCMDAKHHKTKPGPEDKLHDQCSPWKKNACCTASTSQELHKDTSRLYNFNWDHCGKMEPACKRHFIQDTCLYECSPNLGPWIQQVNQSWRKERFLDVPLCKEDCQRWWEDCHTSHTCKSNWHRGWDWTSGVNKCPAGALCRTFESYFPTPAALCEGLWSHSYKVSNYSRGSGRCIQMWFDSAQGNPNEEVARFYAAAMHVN
# T8 sequence (P15328 other isoform, or with tags, fused parts or gaps limits assumed): as the sequence (P15328 25-234 limits assumed) above, with I2T, W4R, R37K, Q117R, A146P, H171Y counted along it
binder,measurement,setting,value
"19H3 IgG (antibody, V domains shown, human IgG1) VH: QVQLVQSGAEVKKPGASVKVSCKASGYTFTSYYMHWVRQAPGQGLEWMGIINPSGGSTSYAQKFQGRVTMTRDTSTSTVYMELSSLRSEDTAVYYCARTGWSRWGYMDYWGQGTLVTVSS VL: QAVVTQEPSLTVSPGGTVTLTCGSSTGAVTTSNYANWVQEKPGQAFRGLIGGTNKRAPGTPARFSGSLLGGKAALTLSGAQPEDEAEYYCALWYSNLWVFGGGTKLTVL",binding result,[1],no binding (tested: 500 nM)
same,binding result,[2],no binding (tested: 500 nM)
same,binding result,[3],no binding (tested: 500 nM)
same,binding result,[4],no binding (tested: 500 nM)
same,Kd,[5],1.55 nM
same,binding result,human FolR1 on cells [6],binds
"19A4 IgG (antibody, V domains shown, human IgG1) VH: QVQLVQSGAEVKKPGASVKVSCKASGYTFTSYYMHWVRQAPGQGLEWMGIINPSGGSTSYAQKFQGRVTMTRDTSTSTVYMELSSLRSEDTAVYYCARGGWIRWEHFDYWGQGTLVTVSS VL: QAVVTQEPSLTVSPGGTVTLTCGSSTGAVTTSNYANWVQEKPGQAFRGLIGGTNKRAPGTPARFSGSLLGGKAALTLSGAQPEDEAEYYCALWYSNLWVFGGGTKLTVL",binding result,[7],binds
same,binding result,human FolR1 on cells [8],binds
"20H7 IgG (antibody, V domains shown, human IgG1) VH: QVQLVQSGAEVKKPGASVKVSCKASGYTFTSYYMHWVRQAPGQGLEWMGIINPSGGSTSYAQKFQGRVTMTRDTSTSTVYMELSSLRSEDTAVYYCARVGWYRWGYMDYWGQGTLVTVSS VL: QAVVTQEPSLTVSPGGTVTLTCGSSTGAVTTSNYANWVQEKPGQAFRGLIGGTNKRAPGTPARFSGSLLGGKAALTLSGAQPEDEAEYYCALWYSNLWVFGGGTKLTVL",binding result,[1],no binding (tested: 500 nM)
same,binding result,[3],no binding (tested: 500 nM)
same,binding result,[9],binds
"Mov19 IgG (antibody, V domains shown) VH: QVQLQQSGAELVKPGASVKISCKASGYSFTGYFMNWVKQSHGKSLEWIGRIHPYDGDTFYNQNFKDKATLTVDKSSNTAHMELLSLTSEDFAVYYCTRYDGSRAMDYWGQGTTVTVSS VL: DIELTQSPASLAVSLGQRAIISCKASQSVSFAGTSLMHWYHQKPGQQPKLLIYRASNLEAGVPTRFSGSGSKTDFTLNIHPVEEEDAATYYCQQSREYPYTFGGGTKLEIK",EC50 (read off the curve),human FolR1 on cells [10],~1 µg/mL
same,Kd,[11],0.14 nM
same,Kd,[12],0.108 nM
same,Kd,[13],0.55 nM
same,koff,[13],0.000159 s⁻¹
same,kon,[13],289000 M⁻¹ s⁻¹
same,Kd,[14],0.65 nM
same,koff,[14],0.000193 s⁻¹
same,kon,[14],297000 M⁻¹ s⁻¹
same,koff,[15],0.000121 s⁻¹
same,kon,[15],861000 M⁻¹ s⁻¹
same,koff,[16],0.000139 s⁻¹
same,kon,[16],1.29e+06 M⁻¹ s⁻¹
"36F2 IgG (antibody, V domains shown, human IgG1) VH: QVQLVQSGAEVKKPGASVKVSCKASGYTFTSYYMHWVRQAPGQGLEWMGIINPSGGSTSYAQKFQGRVTMTHDTSTSTVYMELSSLRSEDTAVYYCARSFFTGFHLDYWGQGTLVTVSS VL: EIVLTQSPGTLSLSPGERATLSCRASQSVSSSYLAWYQQKPGQAPRLLIYGASSRATGIPDRFSGSGSGTDFTLTISRLEPEDFAVYYCQQYTNEHYYTFGQGTKVEIK",binding result,[17],binds
same,binding result,human FolR1 on cells [18],binds
same,Kd,[11],5.74 nM
same,Kd,[19],1.63 nM
same,Kd,[12],5.31 nM
same,binding result,[20],no binding
same,binding result,[1],no binding (tested: 500 nM)
same,binding result,[3],no binding (tested: 500 nM)
same,koff,[15],0.0151 s⁻¹
same,kon,[15],2.62e+06 M⁻¹ s⁻¹
same,koff,[21],0.000603 s⁻¹
same,kon,[21],370000 M⁻¹ s⁻¹
same,koff,[16],0.016 s⁻¹
same,kon,[16],3.02e+06 M⁻¹ s⁻¹
